Results as given in US9901646B2, “Methods for induction of antigen-specific immune tolerance” (École Polytechnique Fédérale de Lausanne (EPFL), priority 2010, dated 2018).
8‑arm PEG = 8-arm polyethylene glycol (PEG) dendrimer, conjugated via pyridyldisulfide groups to cysteine thiols

Experiments:
[1] = system: mouse erythrocytes; test: 8-arm PEG constructs binding to erythrocytes in vitro, flow cytometry
[2] = system: circulating erythrocytes; test: 8-arm PEG constructs binding to circulating erythrocytes after intravenous injection, flow cytometry; assay type: in vivo, mouse
Text: FIG. 17 presents experimental results depicting erythrocyte cell-surface half-life of 8-arm PEG-ERY1 (filled circles) and 8-arm PEG-MIS (empty boxes), determined by flow cytometry.

[3] = system: human endothelial HUVECs; test: Binding of bacteria displaying peptide to cells, flow cytometry; conditions: peptide displayed on bacteria
Protocol: (§1) Method: To characterize specificity, individual sequenced clones were analyzed using cytometry for binding toward human erythrocytes (type A and B), mouse erythrocytes, HEK293T cells and HUVECs. For binding assays, 10^6 mammalian cells were scanned on an AccuriA6 after co-incubation with 5×10^7 bacteria for 1 h at 4° C. followed by three washes in HFS (5% HSA, 2% FBS in PBS). The percentage of cells with green bacteria bound was calculated using FLOWJO Software.

[4] = system: human epithelial 293T cells; test: as above; conditions: peptide displayed on bacteria
Protocol: as §1

[5] = system: human erythrocytes (type A and B); test: as above; conditions: peptide displayed on bacteria, 1 h at 4° C.
Protocol: as §1

[6] = Immunogenicity of erythrocyte-bound versus wild-type asparaginase, serum IgG ELISA; assay type: in vivo, mouse; conditions: 2-dose regimen, 15 μg i.v. every 2 days, up to 21 days following the final injection
Protocol: A mouse erythrocyte-binding variant of asparaginase (ERY1-ASNase) was created by conjugating the mouse erythrocyte-specific peptide ERY1 (Kontos and Hubbell, 2010). To determine the immunogenicity of erythrocyte-bound versus wild-type asparaginase, a study was performed to evaluate to evaluate two regimens, namely exposure to a 2-dose and a 6-dose regimen of the ERY conjugate (ERY1-ASNase) or the native form (ASPARAGINASE MEDAC, Medac GmbH; which was also used as the raw material for the ERY1-ASNase conjugate). In each regimen, 15 μg of ERY1-ASNase or ASNase was administered intravenously every 2 days, and blood was drawn every 7 days.
(§2) Desired dosages of ERY1-ASNase or ASNase were prepared in sterile 0.9% saline, and 100 μL of the solution was injected into the tail vein of anesthetized C57BL/6 mice. Blood was drawn at pre-determined time points either by cheek puncture or tail incisions.
(§3) Anti-asparaginase antibody detection from serum method Serum from experimental groups was serially diluted into PBS and incubated for 2 h at RT on ASNase-coated ELISA plates. HRP-conjugated anti-mouse IgG (Southern Biotech) was used as the detection antibody.

[7] = Prophylaxis study: tolerance towards wild-type asparaginase; assay type: in vivo, mouse; conditions: re-administration / six challenges with wild-type asparaginase
Protocol: A prophylaxis study was performed to determine if erythrocyte-binding asparaginase induced bona-fide immune tolerance towards wild-type asparaginase. Mice previously administered with wild-type clinical asparaginase were challenged with an additional dose following the onset of humoral immunity. […] On average, mice tolerized with erythrocyte-binding asparaginase developed approx. 6000-fold fewer antibodies towards clinical wild-type asparaginase.
as §2, §3

[8] = Cross-over study: reversal of pre-existing immunity towards asparaginase; assay type: in vivo, mouse; conditions: 21 days following multiple intravenous doses two days apart
Protocol: A cross-over study was performed to determine if erythrocyte-binding asparaginase could reverse immunity towards clinical asparaginase. Mice were intravenously administered multiple doses of wild-type asparaginase two days apart. […] Immunized mice were then therapeutically treated with erythrocyte-binding asparaginase regimens at varying doses. In both dosing regimens, ERY-conjugated asparaginase reduced antibody levels approx. 10-fold, thus reversing pre-existing humoral immunity
as §2
Serum from experimental groups was serially diluted into PBS and incubated for 2 h at RT on ASNase-coated ELISA plates. HRP-conjugated anti-mouse IgG (Southern Biotech) was used as the detection antibody.

[9] = system: mouse erythrocytes; test: TER119-ChrA binding to erythrocytes; conditions: data not shown
[10] = system: BDC2.5 CD4 T cells; test: Co-culture of BDC2.5 splenic dendritic cells and CD4 T cells, proliferation; assay type: cell-based, mouse; conditions: co-culture with BDC2.5 splenic dendritic cells
Text: FIG. 24 is a plot of experimental results showing proliferation of CD4 T cells from the transgenic NODBDC2.5 mouse in co-culture with splenic DCs, with various media additives.
To study T cell behavior towards the chromogranin-A antigen variants, the NODBDC2.5 transgenic mouse was used, which harbors T cells specific for the recognition of the chromogranin-A antigen.

8-arm PEG-ERY1: fluorescent 8-arm PEG construct conjugated with ERY1 peptide by disulfide bond (H-WMVLPWLPGTLDGGSGC(8‑arm PEG)RG-NH2; also: Cys disulfide-linked to 8-arm PEG scaffold (fluorescent))
binding to mouse erythrocytes following in vitro incubation [1]: bind to mouse erythrocytes
binding to circulating erythrocytes upon intravenous injection ([2]; flow cytometry): bind to circulating erythrocytes
cell-surface half-life on circulating erythrocytes ([2]; intravenous administration): 2.2 h
time detected on circulating erythrocytes following intravenous administration ([2]; intravenous administration): 5 h

GQSGQSWSRAILPLFKIQPVGSSGGS (Erythrocyte Binding Peptide) [ERY50]
binding to endothelial HUVECs [3]: bound epithelial/endothelial cells
binding to epithelial 293T cells [4]: bound epithelial/endothelial cells
binding to human erythrocytes, specificity as compared to 293T cells and HUVECs [5]: bound human erythrocytes

B1: asparaginase (protein, UniProt P00805 23-348, looked up)
L-asparaginase 2: LPNITILATGGTIAGGGDSATKSNYTVGKVGVENLVNAVPQLKDIANVKGEQVVNIGSQDMNDNVWLTLAKKINTDCDKTDGFVITHGTDTMEETAYFLDLTVKCDKPVVMVGAMRPSTSMSADGPFNLYNAVVTAADKASANRGVLVVMNDTVLDGRDVTKTNTTDVATFKSVNYGPLGYIHNGKIDYQRTPARKHTSDTPFDVSKLNELPKVGIVYNYANASDLPAKALVDAGYDGIVSAGVGNGNLYKSVFDTLATAAKTGTAVVRSSRVPTGATTQDAEVDDAKYGFVASGTLNPQKARVLLQLALTQTKDPQQIQQIFNQY
notes: native asparaginase, Medac GmbH
asparaginase-specific antibody titers (immunogenicity) [6]: induced vigorous immunity
antibody response after challenge with wild-type asparaginase [7]: increased or remained high
anti-asparaginase antibodies in serum [8]: high levels of anti-asparaginase antibodies

B2: TER119-ChrA: chromogranin-A mimotope 1040-p31 recombinantly fused to mouse erythrocyte-specific scFv TER119 (protein)
scFv: EVKLQESGGGLVQPGGSLKLSCVASGFTFRDHWMNWVRQAPGKTMEWIGDIRPDGSDTNYAPSVRNRFTISRDNTRSILYLQMGNMRSDYTATYYCVRDSPTRAGLMDAWGQGTSVTVSSAGGGGSGGGGSGGGGSGGGGSDIQMTQSPSVLSASVGDRVTLNCKASQNINKYLNRYQQKLGEAPKVLVYNTNNLQTGIPSRFSGSGSGTDFTLTISSLQPEDFATYFCFQHYTWPTFGGVTKLEIKRTHHHHHHGGGYVRPLWVRME
binding to mouse erythrocytes [9]: tightly bound mouse erythrocytes
processing and display on MHC-II, priming of antigen-specific proliferation of BDC2.5 CD4 T cells in vitro [10]: efficiently processed
